These results are taken from patent publication US20220332848A1 (NANJING GENSCRIPT BIOTECH, published 2022).

The target of the experiment is T1, human CTLA-4 (human, UniProt P16410 36-223).
T1 construct: whole, on cells; also called CTLA-4 antigen; cytotoxic T lymphocyte-associated antigen 4
T1 sequence (looked up): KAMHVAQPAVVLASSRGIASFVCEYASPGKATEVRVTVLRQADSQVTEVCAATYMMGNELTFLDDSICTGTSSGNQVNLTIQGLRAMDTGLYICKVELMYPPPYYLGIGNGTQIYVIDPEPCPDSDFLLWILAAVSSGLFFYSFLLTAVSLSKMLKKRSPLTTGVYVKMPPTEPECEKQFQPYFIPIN
Put plainly: flow cytometry on CHO-K1 cells expressing CTLA-4. On the procedure: For the constructed series of bispecific antibodies, the affinity of these samples with antigens was measured by using a flow cytometer. […] Then, an antibody-antigen binding curve was generated based on the geometric mean, raw data of four parameters was plotted by using the […] Prism V6.02 software, and a best fitted value program was compiled to analyze EC₅₀.
(In general: A flow cytometer gives signals particle by particle.)

B1: bispecific antibody CTLA4-G9-LN (bispecific antibody, human IgG4 S228P, kappa)
light: EVQLVESGGGLVQPGGSLRLSCAASGYTYSRHCLGWFRQAPGKGREAVSTIDSDGSTSYADSVKGRFTISRDNAKNTLYLQMNSLRPEDTAVYYCAIGPNPRYCSGAPNTRGAEHYFGYWGQGTLVTVSSGGGGSGGGSEIVLTQSPATLSLSPGERATLSCRASENVGTYISWYQQKPGQAPRLLIYGASNRYTGIPARFSGSGSGTDFTLTISSLEPEDFAVYYCGESYGHLYTFGGGTKVEIKRTVAAPSVFIFPPSDEQLKSGTASVVCLLNNFYPREAKVQWKVDNALQSGNSQESVTEQDSKDSTYSLSSTLTLSKADYEKHKVYACEVTHQGLSSPVTKSFNRGEC
heavy: not shown
notes: also called L2 + H0
As to B1, the binding result was “binds”.

B2: bispecific antibody CTLA4-G15-LN (bispecific antibody, human IgG4 S228P, kappa)
light: EVQLVESGGGLVQPGGSLRLSCAASGYTYSRHCLGWFRQAPGKGREAVSTIDSDGSTSYADSVKGRFTISRDNAKNTLYLQMNSLRPEDTAVYYCAIGPNPRYCSGAPNTRGAEHYFGYWGQGTLVTVSSGGGGSGGGGSGGGGSEIVLTQSPATLSLSPGERATLSCRASENVGTYISWYQQKPGQAPRLLIYGASNRYTGIPARFSGSGSGTDFTLTISSLEPEDFAVYYCGESYGHLYTFGGGTKVEIKRTVAAPSVFIFPPSDEQLKSGTASVVCLLNNFYPREAKVQWKVDNALQSGNSQESVTEQDSKDSTYSLSSTLTLSKADYEKHKVYACEVTHQGLSSPVTKSFNRGEC
heavy: not shown
notes: also called L1 + H0
As for B2, the binding result was “binds”.

B3: bispecific antibody CTLA4-E-HN (bispecific antibody, human IgG4 S228P, kappa)
heavy: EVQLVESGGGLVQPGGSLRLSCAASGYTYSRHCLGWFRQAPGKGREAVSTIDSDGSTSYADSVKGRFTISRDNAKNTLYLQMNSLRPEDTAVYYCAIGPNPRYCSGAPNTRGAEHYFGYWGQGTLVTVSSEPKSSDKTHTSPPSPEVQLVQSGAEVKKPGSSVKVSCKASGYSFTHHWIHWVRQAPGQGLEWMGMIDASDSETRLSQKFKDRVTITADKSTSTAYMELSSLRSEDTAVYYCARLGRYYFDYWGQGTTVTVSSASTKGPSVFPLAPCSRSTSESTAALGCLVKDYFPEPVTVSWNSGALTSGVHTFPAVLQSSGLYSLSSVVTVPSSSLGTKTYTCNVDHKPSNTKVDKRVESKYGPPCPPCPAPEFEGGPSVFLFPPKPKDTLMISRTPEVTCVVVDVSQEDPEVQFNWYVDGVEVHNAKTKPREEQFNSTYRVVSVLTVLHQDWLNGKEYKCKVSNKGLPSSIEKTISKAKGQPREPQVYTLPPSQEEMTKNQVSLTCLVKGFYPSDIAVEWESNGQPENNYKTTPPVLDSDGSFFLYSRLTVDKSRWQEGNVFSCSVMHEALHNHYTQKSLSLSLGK
light: EIVLTQSPATLSLSPGERATLSCRASENVGTYISWYQQKPGQAPRLLIYGASNRYTGIPARFSGSGSGTDFTLTISSLEPEDFAVYYCGESYGHLYTFGGGTKVEIKRTVAAPSVFIFPPSDEQLKSGTASVVCLLNNFYPREAKVQWKVDNALQSGNSQESVTEQDSKDSTYSLSSTLTLSKADYEKHKVYACEVTHQGLSSPVTKSFNRGEC
notes: also called H2 + L0
For the molecule B3, the binding result was “binds”.

B4: bispecific antibody CTLA4-E-HC (bispecific antibody, human IgG4 S228P, kappa)
heavy: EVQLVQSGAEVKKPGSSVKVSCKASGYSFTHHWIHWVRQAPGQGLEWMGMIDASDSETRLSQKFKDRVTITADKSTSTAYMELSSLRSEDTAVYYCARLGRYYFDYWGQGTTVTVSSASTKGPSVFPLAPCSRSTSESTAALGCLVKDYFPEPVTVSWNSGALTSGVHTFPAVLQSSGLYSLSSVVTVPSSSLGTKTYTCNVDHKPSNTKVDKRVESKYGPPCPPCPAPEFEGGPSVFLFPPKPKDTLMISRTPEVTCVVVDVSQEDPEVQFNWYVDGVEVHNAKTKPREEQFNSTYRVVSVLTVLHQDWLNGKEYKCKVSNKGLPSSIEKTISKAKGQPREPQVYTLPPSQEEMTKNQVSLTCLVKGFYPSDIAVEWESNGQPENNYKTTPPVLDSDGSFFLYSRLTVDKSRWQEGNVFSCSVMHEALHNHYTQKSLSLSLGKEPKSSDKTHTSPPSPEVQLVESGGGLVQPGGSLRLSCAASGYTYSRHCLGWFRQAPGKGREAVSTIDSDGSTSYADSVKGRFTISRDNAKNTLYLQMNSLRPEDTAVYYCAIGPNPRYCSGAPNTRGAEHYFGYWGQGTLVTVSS
light: EIVLTQSPATLSLSPGERATLSCRASENVGTYISWYQQKPGQAPRLLIYGASNRYTGIPARFSGSGSGTDFTLTISSLEPEDFAVYYCGESYGHLYTFGGGTKVEIKRTVAAPSVFIFPPSDEQLKSGTASVVCLLNNFYPREAKVQWKVDNALQSGNSQESVTEQDSKDSTYSLSSTLTLSKADYEKHKVYACEVTHQGLSSPVTKSFNRGEC
notes: also called H1 + L0
Take B4: the binding result is on record as “binds”.

B5: bispecific antibody CTLA4-G15-HC (bispecific antibody, human IgG4 S228P, kappa)
heavy: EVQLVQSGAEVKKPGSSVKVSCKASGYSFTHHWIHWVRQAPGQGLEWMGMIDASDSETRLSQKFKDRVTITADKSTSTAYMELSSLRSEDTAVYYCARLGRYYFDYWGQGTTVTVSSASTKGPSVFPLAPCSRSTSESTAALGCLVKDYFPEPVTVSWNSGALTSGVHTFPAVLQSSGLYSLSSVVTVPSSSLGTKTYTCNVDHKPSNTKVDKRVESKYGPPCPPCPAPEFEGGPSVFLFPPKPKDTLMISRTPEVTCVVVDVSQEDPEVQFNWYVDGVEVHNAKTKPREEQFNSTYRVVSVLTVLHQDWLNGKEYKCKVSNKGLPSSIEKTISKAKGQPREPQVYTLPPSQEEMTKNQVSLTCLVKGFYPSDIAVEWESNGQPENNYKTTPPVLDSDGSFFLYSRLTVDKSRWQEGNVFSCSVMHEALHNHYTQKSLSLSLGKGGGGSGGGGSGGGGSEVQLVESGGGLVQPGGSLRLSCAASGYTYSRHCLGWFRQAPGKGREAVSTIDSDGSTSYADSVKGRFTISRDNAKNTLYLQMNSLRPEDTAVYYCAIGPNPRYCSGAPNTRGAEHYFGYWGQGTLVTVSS
light: EIVLTQSPATLSLSPGERATLSCRASENVGTYISWYQQKPGQAPRLLIYGASNRYTGIPARFSGSGSGTDFTLTISSLEPEDFAVYYCGESYGHLYTFGGGTKVEIKRTVAAPSVFIFPPSDEQLKSGTASVVCLLNNFYPREAKVQWKVDNALQSGNSQESVTEQDSKDSTYSLSSTLTLSKADYEKHKVYACEVTHQGLSSPVTKSFNRGEC
notes: also called H3 + L0
B5: the binding result was “binds”.

B6: bispecific antibody CTLA4-G15-HN (bispecific antibody, human IgG4 S228P, kappa)
heavy: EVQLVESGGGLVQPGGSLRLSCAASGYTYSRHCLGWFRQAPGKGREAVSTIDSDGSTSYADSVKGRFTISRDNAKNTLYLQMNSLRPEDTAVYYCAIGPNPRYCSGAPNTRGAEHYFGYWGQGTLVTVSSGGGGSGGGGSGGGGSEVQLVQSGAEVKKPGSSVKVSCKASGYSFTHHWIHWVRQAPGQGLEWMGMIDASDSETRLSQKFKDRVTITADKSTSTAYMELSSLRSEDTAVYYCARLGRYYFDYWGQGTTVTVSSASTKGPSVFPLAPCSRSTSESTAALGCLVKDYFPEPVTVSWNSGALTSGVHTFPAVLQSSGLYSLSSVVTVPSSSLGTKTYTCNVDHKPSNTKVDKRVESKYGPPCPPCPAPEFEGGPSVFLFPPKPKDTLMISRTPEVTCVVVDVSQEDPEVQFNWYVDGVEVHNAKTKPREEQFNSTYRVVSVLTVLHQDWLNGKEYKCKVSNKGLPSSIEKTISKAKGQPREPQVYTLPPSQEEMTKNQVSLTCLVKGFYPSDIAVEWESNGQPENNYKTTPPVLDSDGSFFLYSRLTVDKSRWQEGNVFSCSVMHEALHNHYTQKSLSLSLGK
light: EIVLTQSPATLSLSPGERATLSCRASENVGTYISWYQQKPGQAPRLLIYGASNRYTGIPARFSGSGSGTDFTLTISSLEPEDFAVYYCGESYGHLYTFGGGTKVEIKRTVAAPSVFIFPPSDEQLKSGTASVVCLLNNFYPREAKVQWKVDNALQSGNSQESVTEQDSKDSTYSLSSTLTLSKADYEKHKVYACEVTHQGLSSPVTKSFNRGEC
notes: also called H4 + L0
B6: the binding result is “binds”.
